This note sets out measurements from article PMC5703852, “Functional interplay between the transcription factors USF1 and PDX-1 and protein kinase CK2 in pancreatic β-cells” (Scientific Reports, 2017).

The target in the experiment is T1, GST-USF1 T100D (UniProt P22415 1-310, T100D).
T1 construct: USF1 with the CK2 phosphorylation site threonine 100 changed to the phospho-mimicking aspartic acid, as GST fusion; also called phospho-mimicking USF1_(T100D) mutant; source: bacterial expression, purified GST fusion protein
T1 sequence (P22415 whole entry T100D, the tested form may be a part): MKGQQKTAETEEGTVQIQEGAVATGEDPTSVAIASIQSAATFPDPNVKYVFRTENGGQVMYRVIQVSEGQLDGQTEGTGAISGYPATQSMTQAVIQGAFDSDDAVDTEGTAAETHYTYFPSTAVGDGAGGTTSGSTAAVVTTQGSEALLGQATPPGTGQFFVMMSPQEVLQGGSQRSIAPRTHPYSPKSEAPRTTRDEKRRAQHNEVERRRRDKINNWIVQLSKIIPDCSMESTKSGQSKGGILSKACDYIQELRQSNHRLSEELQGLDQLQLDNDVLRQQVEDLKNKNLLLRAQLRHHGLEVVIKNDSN
Nature of the experiment: pull-down; 10 µg purified GST fusion protein on GSH-sepharose in PBS-T (PBS pH 7.4, 1% Tween 20), 2 h at 4 °C with 7.5 µl in vitro translated [35S]methionine-labelled partner; SDS-PAGE, Coomassie, autoradiography. To be noted: one partner purified.

B1: in vitro translated PDX-1 (pRSET-PDX-1) (natural protein)
chain: not shown
modifications: [35S]methionine labelled
notes: mouse PDX-1 cDNA cloned in frame into the BamH1/HindIII sites of pRSETA; also called wild-type PDX-1; source: in vitro translated (from pRSET-PDX-1, Promega)
Consider B1, for which the “fold binding against wild-type or alanine mutant USF1” value was determined as 3.5 fold.
